# Results as given in article PMC2150735.
# pKd: −log10 of the molar value. Where two headings read alike, the source gives them in different places.
# Columns and labels:
# [1] = molecular target: GST-RanBP3 (human); assay: pull-down
# [2] = molecular target: Crm1-His6 (human) (UniProt O14980); assay: ELISA
# [3] = molecular target: Crm1-His6 (human) (UniProt O14980); assay: ELISA; remark: listed apart in the source
Substance,"ratio bound/total at 1 min, with RanBP1 [1]","ratio bound/total at 1 min, without RanBP1 [1]","ratio bound/total at 10 min, with RanBP1 [1]",pKd [2],pKd [3]
Crm1-His6 (from UniProt O14980 1-1071) (receptor),0.52,0.59,0.39,,
GST-RanBP3 (natural protein),,,,7.19,6.97
